This assay addresses T1, epithelial cell adhesion molecule (EpCAM) (UniProt P16422 24-314, limits assumed).
T1 construct: whole, on cells; also called EpCAM membrane protein
T1 sequence (looked up): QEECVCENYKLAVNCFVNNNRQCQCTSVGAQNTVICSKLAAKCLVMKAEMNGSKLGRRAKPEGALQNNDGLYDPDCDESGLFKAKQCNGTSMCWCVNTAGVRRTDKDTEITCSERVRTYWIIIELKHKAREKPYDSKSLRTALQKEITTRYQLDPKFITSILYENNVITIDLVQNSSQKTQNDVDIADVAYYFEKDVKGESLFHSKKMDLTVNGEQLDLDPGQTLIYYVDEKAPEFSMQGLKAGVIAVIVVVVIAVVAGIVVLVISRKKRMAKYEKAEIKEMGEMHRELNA
In words: capture of HCT116 and SAS cells on antibody surface coating, colorimetric read-out at OD 490 nm. Here is the method: The binding specificity of biotinylated OC9801 antibody, biotinylated EpAb4-1 antibody and biotinylated EpCam antibody (commercially available from R&D system, USA) were examined using the HCT116 (colorectal) CTCs and SAS (tongue) CTCs.
The CTC binding specificy of the antibodies was determined by colorimetric method, by measuring the absorption optical density at 490 nm.

Results on one molecule are retold here after US20210088514A1 (ACADEMIA SINICA, published 2021).

B1: biotinylated EpAb4-1 antibody (antibody, V domains shown)
VH: QIQLVQSGPELKKPGETVKISCKASGYTFTNYGMNWVKQAPGKGLKWMGWINTYTGEPTYGDDFKGRFAFSLETSASTAYLQINNLKNEDTATYFCARFGRSVDFWGQGTSVTVSS
VL: DIVMTQAAFSNPVTLGTSASISCRSSKSLLHSNGITYLYWYLQKPGQSPQLLIYHMSNLASGVPDRFSSSGSGTDFTLRISRVEAEDVGIYYCAQNLENPRTFGGGTKLEIK
modifications: biotinylated with Sulfo NHS-LC-Biotin; ratio of biotin and antibody 1.5 to 1; sites not stated
notes: Immobilised through streptavidin on the surface coating in the assay; also called bEpAb4-1; biotinylated anti-EpCam antibody
For B1, the binding result is “binds”.
